Values joined by “and” are separate entries in the source; they are usually repeats but may differ in a detail not shown here. Identical values can stand only once.
Columns and labels:
[1] = molecular target: dAb, a domain antibody comprising the variable light chain; test: frontal analysis on a membrane disc, run 1
[2] = molecular target: dAb, a domain antibody comprising the variable light chain; test: frontal analysis on a membrane disc, run 2
Trastuzumab [3] = test: frontal analysis on a membrane disc, load at 10 mL/min, run 1
Trastuzumab [4] = test: frontal analysis on a membrane disc, load at 10 mL/min, run 3
Trastuzumab [5] = test: frontal analysis on a membrane disc, blank run between runs, run 1
Trastuzumab [6] = test: frontal analysis on a membrane disc, blank run between runs, run 2
Trastuzumab [7] = test: frontal analysis on a membrane disc, blank run between runs, average
[8] = molecular target: dAb, a domain antibody comprising the variable light chain; test: frontal analysis on a membrane disc, run 1, average of Test 1 and Test 2
[9] = molecular target: dAb, a domain antibody comprising the variable light chain; test: frontal analysis on a membrane disc, run 2, average of Test 1 and Test 2
Trastuzumab [10] = test: frontal analysis on a membrane disc, load at 10 mL/min, average of runs 1-4
[11] = molecular target: dAb, a domain antibody comprising the variable light chain; test: frontal analysis on a membrane disc, re-run after CIP with 0.1 M NaOH, average; conditions: test 1, without preceding CIP wash
Trastuzumab [12] = test: frontal analysis on a membrane disc, load at 10 mL/min, run 2 (no blank run before)
Trastuzumab [13] = test: frontal analysis on a membrane disc, load at 10 mL/min, run 4 (no blank run before)

Qb10% (dynamic binding capacity at 10% breakthrough) [1]: 12.8 mg/mL and 13 mg/mL
Qb10% (dynamic binding capacity at 10% breakthrough) [2]: 9.41 mg/mL and 10.5 mg/mL
Qb10% (dynamic binding capacity at 10% breakthrough) (Trastuzumab [3]): 17.3 mg/mL and 22 mg/mL
Qb10% (dynamic binding capacity at 10% breakthrough) (Trastuzumab [4]): 15.9 mg/mL and 21.8 mg/mL
Qb10% (dynamic binding capacity at 10% breakthrough) (Trastuzumab [5]): 15.4 mg/mL and 21.4 mg/mL
Qb10% (dynamic binding capacity at 10% breakthrough) (Trastuzumab [6]): 15.5 mg/mL and 21.4 mg/mL
Qb10% (average of runs) (Trastuzumab [7]): 15.4 mg/mL and 21.4 mg/mL
Average of Qb10% [8]: 12.9 mg/mL
Average of Qb10% [9]: 9.98 mg/mL
Qb10% (average of runs) (Trastuzumab [10]): 19.6 mg/mL and 14.1 mg/mL
Qb10% (average of runs) [11]: 10.2 mg/mL
Qb10% (dynamic binding capacity at 10% breakthrough) (Trastuzumab [12]): 12.3 mg/mL and 17.8 mg/mL
Qb10% (dynamic binding capacity at 10% breakthrough) (Trastuzumab [13]): 10.8 mg/mL and 16.8 mg/mL
Substance: kappa light chain-binding ligand (multimer of alkali-stabilized Finegoldia magna Protein L domains) covalently coupled to a convection-based fibrous support (prototype separation matrix) (designed binder)

From patent US20260258092A1
